The assay addresses OTi TCR on OT-I mouse T cells. In words: cell-based or functional assay.

Turning to “FITC-conjugated tetramer H2Kb-SIINFEKL (from UniProt P01901 22-305) (peptide-MHC)”, the cytotoxicity of human primary CD8 anti-FITC CAR T cells on OTi cells is over 50%.
